According to patent publication US7572574B2, “Method of measuring neprilysin activity” (Riken, priority 2002, dated 2009):

Molecular target: T1, neprilysin (Mus musculus, UniProt Q61391)
T1 construct: endogenous in cells; host or cells: mouse fetal cerebral cortex and hippocampus primary cultured nerve cells, paraformaldehyde-fixed
T1 sequence (Q61391 1-750): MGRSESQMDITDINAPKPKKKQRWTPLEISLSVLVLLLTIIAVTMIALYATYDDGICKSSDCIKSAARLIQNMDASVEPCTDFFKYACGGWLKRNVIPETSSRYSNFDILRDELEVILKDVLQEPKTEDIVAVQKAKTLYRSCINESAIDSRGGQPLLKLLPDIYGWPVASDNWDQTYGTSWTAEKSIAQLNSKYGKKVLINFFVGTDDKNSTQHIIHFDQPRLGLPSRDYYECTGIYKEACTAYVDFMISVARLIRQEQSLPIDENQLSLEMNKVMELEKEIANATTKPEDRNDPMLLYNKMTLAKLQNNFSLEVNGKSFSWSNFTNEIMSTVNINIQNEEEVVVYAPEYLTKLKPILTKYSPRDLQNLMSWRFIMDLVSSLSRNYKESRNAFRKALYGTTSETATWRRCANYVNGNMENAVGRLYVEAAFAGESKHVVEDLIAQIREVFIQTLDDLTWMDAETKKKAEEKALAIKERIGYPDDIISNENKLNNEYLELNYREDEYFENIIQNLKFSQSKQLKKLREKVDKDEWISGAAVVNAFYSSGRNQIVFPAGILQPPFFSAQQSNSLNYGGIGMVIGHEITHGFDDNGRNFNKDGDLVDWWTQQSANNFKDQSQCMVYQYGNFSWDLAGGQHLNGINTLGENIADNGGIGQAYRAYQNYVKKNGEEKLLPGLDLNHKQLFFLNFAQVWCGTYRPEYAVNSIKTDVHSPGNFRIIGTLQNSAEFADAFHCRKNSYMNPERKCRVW
Assay: Neprilysin activity staining in mouse primary cultured nerve cells (fluorescent substrate, confocal microscopy)
Format: cell-based
Settings: for action against the neprilysin activity or its gene expression: general statement in the description
Experimental: Nerve cells were prepared from the mouse fetal cerebral cortex and hippocampus and seeded on a poly-L-coated chamber slide (8 chambers, IWAKI 4730-040) at a density of 1×10^5 cells/chamber, followed by incubation for 7 days. After completion of the incubation, the cells were washed with TBS (pH 7.4) and fixed for 12.5 minutes at 20° C. with a paraformaldehyde solution (1.5% paraformaldehyde/50 mM phosphate buffer, pH 6.8). After the cells were washed twice with TBS, 0.2 ml of substrate solution (glutaryl-alanyl-alanyl-phenylalanyl-4-methoxy-2-naphthylamide, Sigma G3769, fmal concentration: 0.5 mM; 0.05 M Tris-HCI buffer, pH 7.4 (pH was adjusted to 7.4 at 4° C.)) was added to the cells, followed by reacting at 4° C. for 48 hours. After completion of the reaction, 25 μl of the solution mixture of aminopeptidase (Sigma L-5006, final concentration: 20.4 μg/ml) and phosphoramidone (Peptide Inst. 4082, final concentration: 10 μM) and 25 μl of nitrosalicylaldehyde solution (6 mM) were further added thereto sequentially. The mixture was reacted at 37° C. for 30 minutes. The reaction was completed by washing the cells twice with TBS. Using argon laser and a filter for rhodamine, positive stained images were observed under a confocal laser scanning microscope (FIG. 1). When the substrate is degraded by neprilysin, an insoluble fluorescent reaction product is formed so that the sites where neprilysin is present are visualized in yellow.
Nerve cells were prepared from the mouse fetal cerebral cortex and hippocampus, followed by incubation as in EXAMPLE 1. On day 7 of the incubation, somatostatin (somatostatin 14 and 28, final concentration: 1 μM) was added to the cells, followed by incubation for further 24 hours. […] To investigate in further detail, these stained images were quantified by image analysis software (Nippon Roper Co., Ltd., MetaVue) and examined.

Substance	action against the neprilysin activity or its gene expression	neprilysin activity in the nerve cells compared to control added with no peptide (mouse fetal cerebral cortex and hippocampus primary nerve cells, peptide final concentration 1 μM, 24 hours, stained images observed)
PACAP: pituitary adenylate cyclase-activating polypeptide, publicly known neuropeptide	inhibitorily acts	markedly decreased
VIP: vasoactive intestinal peptide, publicly known neuropeptide	inhibitorily acts	
